Values quoted from earlier work, collected in patent US20180296685A1, “TARGETED CONSTRUCTS AND FORMULATIONS THEREOF” (TARVEDA THERAPEUTICS, INC., priority 2017, published 2018).

Settings: transthyretin, serum protein

Question: With Transthyretin as the substance, how does the in vivo half-life read?
Answer: around 48 h
